# Where two headings read alike, the source gives them in different places.
# Legend:
# [1] = target: dbOphMA, methyltransferase-precursor fusion protein from Dendrothele bispora CBS 962.96, full-length fusion (residues Met1-Ala417) (Dendrothele bispora CBS 962.96)
# [2] = target: dbOphMA, methyltransferase-precursor fusion protein from Dendrothele bispora CBS 962.96, full-length fusion (residues Met1-Ala417) (Dendrothele bispora CBS 962.96); test: crystal structure
# [3] = target: dbOphM, the catalytic component of dbOphMA (Met1-Asn377), which lacks the precursor peptide (Dendrothele bispora CBS 962.96); test: crystal structure
# dbOphMA [4] = target: T1, dbOphMA (Dendrothele bispora, UniProt A0A4S8L4Q5); test: microscale thermophoresis; type: binding
# T1 sequence (A0A4S8L4Q5 1-377): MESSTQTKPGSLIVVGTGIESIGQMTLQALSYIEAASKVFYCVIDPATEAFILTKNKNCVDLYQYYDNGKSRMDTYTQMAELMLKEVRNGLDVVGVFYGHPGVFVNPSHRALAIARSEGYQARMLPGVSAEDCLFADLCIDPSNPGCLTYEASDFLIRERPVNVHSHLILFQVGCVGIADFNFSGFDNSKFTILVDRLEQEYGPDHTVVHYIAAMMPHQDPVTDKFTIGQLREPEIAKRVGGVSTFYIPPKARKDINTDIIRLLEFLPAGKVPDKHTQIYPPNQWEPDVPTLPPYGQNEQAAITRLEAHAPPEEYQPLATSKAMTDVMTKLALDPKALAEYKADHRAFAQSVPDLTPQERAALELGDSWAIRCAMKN
# dbOphMA [5] = target: T1, dbOphMA; test: microscale thermophoresis; type: binding; remark: listed apart in the source
compound,measurement,setting,value
"dbOphMA, methyltransferase-precursor fusion protein from Dendrothele bispora CBS 962.96, full-length fusion (residues Met1-Ala417) (enzyme)",stoichiometry N,[1],2
same,stoichiometry N,[2],2
"dbOphM, the catalytic component of dbOphMA (Met1-Asn377), which lacks the precursor peptide (domain or fragment)",stoichiometry N,[3],2
"Nc1ncnc2c1ncn2[C@@H]1O[C@H](CSCC[C@H](N)C(=O)O)[C@@H](O)[C@H]1O [SAH, S-adenosyl homocysteine]",Kd,dbOphMA [4],6.88 µM
"C[S@@+](CC[C@H](N)C(=O)O)C[C@H]1O[C@@H](n2cnc3c(N)ncnc32)[C@H](O)[C@@H]1O [SAM, S-adenosyl methionine]",Kd,dbOphMA [5],80.7 µM
